The text below walks through data of PMC6616044, “Identification and characterization of a new sulfoacetaldehyde reductase from the human gut bacterium Bifidobacterium kashiwanohense” (Bioscience Reports, 2019).

The target of one series is T1, BkTauF (Bifidobacterium catenulatum, UniProt A0A0A7I0A5).
T1 construct: gene AH68_00250; codon-optimized gene; His6-MBP-TEV-GGG fusion in E. coli BL21(DE3), tag cut by TEV protease, GGG linker before N-terminus; 375 residues seen, 41 kDa monomer, dimer; Zn2+ enzyme
In words: X-ray crystal structure, […] Å. The series is classed as binding. The note with it: binary complex; nucleotide site in cleft between N- and C-terminal domains.

Series [1] concerns the target Bifidobacterium kashiwanohense TauF (sulfoacetaldehyde reductase) (Bifidobacterium kashiwanohense). Put plainly: SEC; Superdex200 gel filtration, 5 mg/ml BkTauF, 4 ml injected, buffer C (20 mM Tris pH 7.5, 200 mM KCl, 1 mM DTT), 2 ml/min; molecular weight from the elution volume against markers.
Substrate in series [2]: NC(=O)c1ccc[n+]([C@@H]2O[C@H](COP(=O)(O)OP(=O)(O)OC[C@H]3O[C@@H](n4cnc5c(N)ncnc54)[C@H](O)[C@@H]3O)[C@@H](O)[C@H]2O)c1
In words: spectrophotometric NADH formation, A340. The series is classed as biochemical, Bifidobacterium catenulatum. The settings on record: isethionate oxidation, 100 mM isethionate, 50 mM CAPSO pH 10.0, room temperature. An excerpt:
spectrophotometric NADH formation, A340 on BkTauF

Substrate in series [3]: NC(=O)c1ccc[n+]([C@@H]2O[C@H](COP(=O)(O)OP(=O)(O)OC[C@H]3O[C@@H](n4cnc5c(N)ncnc54)[C@H](OP(=O)(O)O)[C@@H]3O)[C@@H](O)[C@H]2O)c1
Put plainly: spectrophotometric NADPH formation, A340. The format is biochemical, Bifidobacterium catenulatum. The note with it: isethionate oxidation, 100 mM isethionate, 50 mM CAPSO pH 10.0, room temperature. An excerpt:
spectrophotometric NADPH formation, A340 on BkTauF

Substrate in series [4]: O=S(=O)(O)CCO
In words: spectrophotometric NADH assay, A340. The series is classed as biochemical, Bifidobacterium catenulatum. The settings on record: isethionate oxidation; 1 mM NAD+, 50 mM CAPSO pH 10.0, room temperature; pH 10.0. From the text:
(§1) spectrophotometric NADH assay, A340 on BkTauF

Substrate in series [5]: O=CCS(=O)(=O)O
Put plainly: spectrophotometric NADH assay, A340. The note with it: sulfoacetaldehyde introduced as bisulfite adduct; 0.5 mM NADH, 50 mM Tris/HCl pH 7.5, room temperature; pH 7.5. The series is classed as biochemical, Bifidobacterium catenulatum.
Excerpt: as §1

Substrate in series [6]: NC(=O)C1=CN([C@@H]2O[C@H](COP(=O)(O)OP(=O)(O)OC[C@H]3O[C@@H](n4cnc5c(N)ncnc54)[C@H](O)[C@@H]3O)[C@@H](O)[C@H]2O)C=CC1
In words: spectrophotometric NADH assay, A340. The format is biochemical, Bifidobacterium catenulatum. The settings on record: sulfoacetaldehyde reduction; 5 mM sulfoacetaldehyde, 50 mM Tris/HCl pH 7.5, room temperature; pH 7.5.
Excerpt: as §1

Substrate in series [7]: NC(=O)C1=CN([C@@H]2O[C@H](COP(=O)(O)OP(=O)(O)OC[C@H]3O[C@@H](n4cnc5c(N)ncnc54)[C@H](OP(=O)(O)O)[C@@H]3O)[C@@H](O)[C@H]2O)C=CC1
Put plainly: spectrophotometric NADPH assay, A340. The series is classed as biochemical, Bifidobacterium catenulatum. The note with it: sulfoacetaldehyde reduction, 5 mM sulfoacetaldehyde, 50 mM Tris/HCl pH 7.5, room temperature. From the text:
spectrophotometric NADPH assay, A340 on BkTauF

For `NC(=O)c1ccc[n+]([C@@H]2O[C@H](COP(=O)(O)OP(=O)(O)OC[C@H]3O[C@@H](n4cnc5c(N)ncnc54)[C@H](O)[C@@H]3O)[C@@H](O)[C@H]2O)c1` [NAD^+], the “X-ray crystal structure, 3.0 Å” value on BkTauF is on record as “The electron density is well defined for NAD^+”.
For “Bifidobacterium kashiwanohense TauF (sulfoacetaldehyde reductase) (enzyme)”, in series [1], the stoichiometry N (usually a count of units in the complex or per binding partner) stood at 2.

B1: BkTauF (Bifidobacterium catenulatum subsp. puerorum PV20-2) (protein)
chain: MLWDYAQPVTIRFGKGRAMEIKDIAEAMGLHDGIMVTPKFFVDSGEAQRLIDASDGAVSTVFTDFSPNPDVTEVDACAEIIRKNHCEFVVAMGGGSAMDVSKAAASICLTDDSIADYHGTGKAMPQKHLPIIALPTTAGTGSEVTCVSVLTNRKLGKKAPIVSDGFFPSVAIVDPELTYSVPPKITASTGMDVLSQAIEGFWSKGHQPICDSCAAHAAKLVFKYLPIAVAEPHNEEAREKMCEASVIAGLAFTLPKTTSSHACSFPLTNIHGIPHGEACGLTLDYFARINKDAQHGRVQEFARGIGFKDVDAMADAIHDLKVRIGMRTGLKDLNLTEEQIADLVRISRHPNLYNNPVEITDDMLDTMYHYLASTD
notes: codon-optimized gene; His6-MBP-TEV-GGG fusion in E. coli BL21(DE3), tag cut by TEV protease, GGG linker before N-terminus; 375 residues seen, 41 kDa monomer, dimer; Zn2+ enzyme
On to B1, for which the Km – broadly, the concentration of substrate that gives half-maximal velocity – in series [2] was determined as 0.08 ± 0.00 mM; in series [3], 0.77 ± 0.08 mM; in series [4] it was 4.44 ± 0.59 mM; in series [5], 0.50 ± 0.04 mM; in series [6] it was 0.06 ± 0.01 mM; in series [7], 0.73 ± 0.08 mM. Besides, the kcat (as a rule, the maximal rate divided by the concentration of active sites) in series [2] came to 1.3 ± 0.02 s⁻¹; in series [3], 0.8 ± 0.02 s⁻¹; in series [4], 0.97 ± 0.03 s⁻¹; in series [5], 22.8 ± 0.68 s⁻¹; in series [6], 18.7 ± 0.52 s⁻¹; in series [7], 19 ± 1.13 s⁻¹. Also, the kcat/Km (in general, the turnover number divided by the Michaelis constant) came out at 15800 M⁻¹ s⁻¹ in series [2]; 1030 M⁻¹ s⁻¹ in series [3]; 218 M⁻¹ s⁻¹ in series [4]; 46100 M⁻¹ s⁻¹ in series [5]; 301000 M⁻¹ s⁻¹ in series [6]; 26200 M⁻¹ s⁻¹ in series [7].
